One block for each substance: values may come before it.
Legend:
[1] = molecular target: SUMO-ARVCF peptide fusion protein (yeast); assay: SPR; linker mutant immobilised on Ni-NTA chip, SUMO-peptide fusion as analyte
[2] = molecular target: SUMO-δ-catenin peptide fusion protein (yeast); assay: ratio of SPR Kd values, reference ARVCF peptide
[3] = molecular target: SUMO-ARVCF peptide fusion protein (yeast); assay: SPR (BIAcore 2000); clamp immobilised on Ni-NTA chip, SUMO-peptide fusion as analyte
[4] = molecular target: SUMO-ARVCF peptide fusion protein (yeast); assay: SPR; clamp immobilised on Ni-NTA chip, SUMO-peptide fusion as analyte
[5] = molecular target: SUMO-δ-catenin peptide fusion protein (yeast); assay: binding analysis of purified protein; reference ARVCF peptide
[6] = molecular target: SUMO-ARVCF peptide fusion protein, Ala substitution at position -7 (yeast); assay: SPR, Ala scanning; reference wild-type ARVCF peptide
[7] = molecular target: SUMO-ARVCF peptide fusion protein, Ala substitution at position -4 (yeast); assay: as above
[8] = molecular target: SUMO-ARVCF peptide fusion protein, Ala substitution at position -6 (yeast); assay: as above
[9] = molecular target: SUMO-ARVCF peptide fusion protein, Ala substitution at position -5 (yeast); assay: as above
[10] = molecular target: SUMO-ARVCF peptide fusion protein (yeast); assay: SPR; linker mutant against ePDZ-b with the GGSGG linker

Sequence of ePDZ-b linker mutant GGSG (Q96RT1 other isoform, or with tags, fused parts or gaps, change not shown): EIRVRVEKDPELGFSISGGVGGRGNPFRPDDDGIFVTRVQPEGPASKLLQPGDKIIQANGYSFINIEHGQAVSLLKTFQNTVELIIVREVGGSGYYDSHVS
Sequence of ePDZ-b linker mutant GGS (Q96RT1 other isoform, or with tags, fused parts or gaps, change not shown): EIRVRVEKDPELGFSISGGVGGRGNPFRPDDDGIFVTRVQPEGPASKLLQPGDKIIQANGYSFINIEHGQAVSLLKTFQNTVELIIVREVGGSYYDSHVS
Sequence of ePDZ-a linker mutant GGSG (Q96RT1 other isoform, or with tags, fused parts or gaps, change not shown): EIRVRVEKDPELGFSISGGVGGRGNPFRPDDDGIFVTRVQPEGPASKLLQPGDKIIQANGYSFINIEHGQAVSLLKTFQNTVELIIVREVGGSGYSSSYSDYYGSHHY
Sequence of ePDZ-a linker mutant GGS (Q96RT1 other isoform, or with tags, fused parts or gaps, change not shown): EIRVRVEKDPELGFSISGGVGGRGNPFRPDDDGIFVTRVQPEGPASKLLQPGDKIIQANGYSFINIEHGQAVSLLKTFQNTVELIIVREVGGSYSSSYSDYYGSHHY
Sequence of ePDZ-a linker mutant GG (Q96RT1 other isoform, or with tags, fused parts or gaps, change not shown): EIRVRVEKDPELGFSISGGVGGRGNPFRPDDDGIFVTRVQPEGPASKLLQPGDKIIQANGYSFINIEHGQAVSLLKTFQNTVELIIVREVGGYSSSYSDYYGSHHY

Substance: ePDZ-a linker mutant GG (from UniProt Q96RT1 1321-1410) (designed binder)
Kd [1]: 311 nM

Substance: ePDZ-a linker mutant GGS (from UniProt Q96RT1 1321-1410) (designed binder)
Kd [1]: 134 nM

Substance: ePDZ-b (from UniProt Q96RT1 1321-1410) (designed binder)
Specificity Index (Kd for δ-catenin / Kd for ARVCF) [2]: > 446
Kd [3]: 56 nM
koff [3]: 0.011 s⁻¹
kon [3]: 190000 M⁻¹ s⁻¹
Kd [4]: 56 nM
fold discrimination between the two targets [5]: 200 fold
fold decrease in binding affinity against the wild-type ARVCF peptide [6]: > 5 fold
ΔΔG upon Ala substitution of the ARVCF peptide [6]: > 1 kcal/mol
fold decrease in binding affinity against the wild-type ARVCF peptide [7]: > 5 fold
ΔΔG upon Ala substitution of the ARVCF peptide [7]: > 3 kcal/mol
fold decrease in binding affinity against the wild-type ARVCF peptide [8]: > 5 fold
ΔΔG upon Ala substitution of the ARVCF peptide [8]: > 1 kcal/mol
fold decrease in binding affinity against the wild-type ARVCF peptide [9]: > 5 fold
ΔΔG upon Ala substitution of the ARVCF peptide [9]: > 1 kcal/mol

Substance: ePDZ-b linker mutant GGSG (from UniProt Q96RT1 1321-1410) (designed binder)
Kd [1]: 412 nM
fold reduction of binding affinity against the original linker [10]: 8 fold

The next lines start with the values.

Kd [1]: 117 nM
Substance: ePDZ-a linker mutant GGSG (from UniProt Q96RT1 1321-1410) (designed binder)

Kd [1]: > 5000 nM
Substance: ePDZ-b linker mutant GGS (from UniProt Q96RT1 1321-1410) (designed binder)

Source: patent US20110045604A1
